{"source": "paper PMC2386288", "about": "“Kinetics and Ligand-Binding Preferences of Mycobacterium tuberculosis Thymidylate Synthases, ThyA and ThyX” (PLoS ONE, 2008)", "proteins": {"B1": {"name": "Histidine-tagged M. tuberculosis ThyA (thymidylate synthase) (enzyme)", "chain": "MSIVTPYEDLLRFVLETGTPKSDRTGTGTRSLFGQQMRYDLSAGFPLLTTKKVHFKSVAYELLWFLRGDSNIGWLHEHGVTIWDEWASDTGELGPIYGVQWRSWPAPSGEHIDQISAALDLLRTDPDSRRIIVSAWNVGEIERMALPPCHAFFQFYVADGRLSCQLYQRSADLFLGVPFNIASYALLTHMMAAQAGLSVGEFIWTGGDCHIYDNHVEQVRLQLSREPRPYPKLLLADRDSIFEYTYEDIVVKNYDPHPAIKAPVAV", "notes": "also called conventional thymidylate synthase"}}, "target": "the molecule itself", "assay": "SEC"}
{"protein": "B1", "values": [{"measurement": "stoichiometry N", "result": 2}]}
